Data on 69 sequences can be found in the domain aggregation screens of Martell et al. (2025).

The data set can be described thus: soluble fraction after stress (log2 fold change); higher = more stays soluble; pooled small domains, quantitative proteomics. Particulars: stress: 50 degC. In a few lines: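 The stress applied to every library was 50°C. These custom libraries of small protein domains were pooled and measured at high throughput with quantitative proteomics as the read-out. Aggregation propensity is expressed as the base-two logarithm of the fold change in how much of each protein remains soluble. The higher the value, the more of that protein stays in solution.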
In the case of “HMREVEAPRDLLAALGERPGALDAWKALSFTHQREYVEAIEDARKPETRERRIANAVKMVAERS”, the “soluble fraction (log2)” value was 0.285.

As to “HMDVQGFVMDLDKPLDKEPIVEGFELKLEDSLTLVAAVNKDKSINSLFDELSKLGIKVKSMRNPP”, the “soluble fraction (log2)” value is -0.0252.

On to “HMIDSVFASYRQVALDDELWDKVRNGAVLPKVELFEVMDGPVLFTYQSKIVAMYEPHPTKAGYIKPRKMFL”, for which the “soluble fraction (log2)” value is -1.18.

In the case of “HMILVLKPGAPEDLKNELIHDIEKMGLRVHVSVGEGTTIIGLIGDTSKISKYTFSSYEIVSNVLRVT”, the “soluble fraction (log2)” value was -0.0106.

Turning to “HMRLTTTPKTARGLTTMNRIIRAAEVEFGRKGYHYTGITDIAQRAKVASGTIYLYFTDKYSLYVHLLT”, the “soluble fraction (log2)” value stood at 0.246.

For the sequence “HMGKREKTKVANRQAILVAARAVFAELGYEAATVRDIIRGTDLASGTFYNYFKSKEEVFDALADDGA”, the “soluble fraction (log2)” value is -1.17.

Take “HMGHLTWTVTGIGHERRARTVAEQMSSVFGVLEARASSAGTVYLEFEREKIDEGGLEASLKRMGVTRVV”: the “soluble fraction (log2)” value is -1.71.

In the case of “HMLTLAVPNSINMRLDKYLSENIDYLSRSKIQGLINDGKVTINGENEKSSYKLNGDESIVIYYEE”, the “soluble fraction (log2)” value is -0.0746.

On to “HMPNIHVVFAEEWTDRRLDKVLSEYFDGYSRSFIKKLFDDGLILVNSKAVKPSYKVRAGDMIDISVPDPV”, for which the “soluble fraction (log2)” value was -0.646.

Take “HMDSVTVPDISGYSPKAAEDSINNAGLKINEQGLSGSGDGQVVERTSPSAGSKVKKGDSVTVYYSKA”: the “soluble fraction (log2)” value was determined as 0.00106.

Consider “HMKTEVNITPGIIDWIERYVQTDKISSSMTEDFQHWKSGTKKPTFNQVEAFSKAINVPLGYFFLKTPPAE”, for which the “soluble fraction (log2)” value is -0.302.

In the case of “HMTYPGSIALVNPKHEAFVQHYVATSGSRGQAAKLAGVTTTTARNLLQDVEATARIRYLNAQQFQ”, the “soluble fraction (log2)” value was -0.107.

In the case of “HMDPTIAAIRKKLKNWTIVEVHMTREELEQAVIDGKVDVFLSSAGFYRRLVRFGARDLATAMSPAYPD”, the “soluble fraction (log2)” value was -0.542.

On to “HMLPLIEVPAVTGKYLTKAKSALKDAGLDTGDIKRVEHEEHGENYVLKQDPPAGTKVPFGTTVSLTVVAP”, for which the “soluble fraction (log2)” value is 0.35.

For “HMHAEEIAREAKEALERGEEFHFAGITVRSEEALEFLEEWLRKFF”, the “soluble fraction (log2)” value is -0.659.

For “HMSFYSVVISQDGSMLVAENRNEIYSNEELLELASEVNEKTGTIGTIGSLMYYKADKGGYTLITFLDNS”, the “soluble fraction (log2)” value was -3.02.

“HMRPLTPLEKLTPDADGKYYHIVQSGETLSWIAKLYETTAEKLQAWNNLFSSDIFPNQKLLLQVTPP”: the “soluble fraction (log2)” value was 0.0722.

Take “HMNIFKLYEENIGPLTPMIADILKEDEAEFPDYWIREAIEIAVKKNARNWKYVHAVLESWQKE”: the “soluble fraction (log2)” value is -3.38.

In the case of “HMIDENILSEEIKHYIETNNYAKDDKLPSERSLASLFNVSRALVRKSLISLVDVNYLYVKDKSGYYING”, the “soluble fraction (log2)” value was -0.0735.

On to “HMDYYSILGVDRNATGEDIKKAFKKKAMKYHPDRNPDNKESERKFKEAKEAYDTLSNPQKKSMYDQFGT”, for which the “soluble fraction (log2)” value was 0.0734.

As for “HMTILTSSQRKALISKMIRQGGVESQSHLVKLLAREGVKVTQATASRDLEDLGATRVRDANGEFQYVIP”, the “soluble fraction (log2)” value is -0.271.

For the sequence “HMPIDNTLLSRITSLGVSTTEAEKLISKHGEEALKANLEVVEERLSKPNLPLLDSPAAYLKTALKNG”, the “soluble fraction (log2)” value is 0.318.

For “HMKQVNVVSVIGQSEANAKTTLTGLGLKVNVAYEEDTSKADGIVLKQSLEGGKTVNEGTTITITVNKIA”, the “soluble fraction (log2)” value was -0.0302.

“HMRDYKTHLQEVLQSKGEVNIWYKLIDEKGPDHNKKFVMQVGIDSKILGFGEGKSKKEAEQVAARKALDNI”: the “soluble fraction (log2)” value is -0.118.

For “HMEIDMQEGIKTIILMMKEHNITPSEAMKIYKSANGDIHYISKIYNHFKNKGADNFVALMIKMVKPGEFIE”, the “soluble fraction (log2)” value is -0.00191.

Turning to “HMKTYGGDNSLHKFDEHHSWMVAKYGPVVKQTINGETKWLKVKKDLTLAQVKKMKLEDVLLPKSQT”, the “soluble fraction (log2)” value is -0.152.

In the case of “HMAMPQPVARALHRLGQDISAARRMRRLSQEDLAQRIGTSLSTVRRMEDGYPGTALHTFLRALHML”, the “soluble fraction (log2)” value was -0.261.

For “HMSQVSTKYINVSSAYVRSKPSKDGEIVTSLIKNTDVTVTGENGDWYKIKFNNYEGYIFKELLSDSKLEE”, the “soluble fraction (log2)” value stood at 0.15.

Take “HMFEQRLRQAMKELRLKQVQVAGLTGKSRGAISQYLSGDRVPPDGVQREMAIALGLEADYFSR”: the “soluble fraction (log2)” value is -0.408.

For “HMLALKSGQVVVGTIIRRLDNTTAMLRIGNQLFETSFAKGLPKSNHILLRYDAMQGNRFIFTMVE”, the “soluble fraction (log2)” value is -0.191.

As for “HMNSKIIVESIIKSKNGIAKVADLVEGGVSRQSIKKMYADGYIKRISRGYYTLTSEPVSSDEQVISS”, the “soluble fraction (log2)” value is -0.333.

Turning to “HMTTTYTVPKVTGMTLEEAREDPDVVGRFTIVEGEKVTSDTVPVGQIVSQEPAAHRQVGEDGLTITVNIS”, the “soluble fraction (log2)” value turned out to be 0.289.

As to “HMQIIETTVGRVLFNEKVPEAAGYINEVLTKKSLRDIIHGILKKTSVPETAAFLDEIKSLGYNFAF”, the “soluble fraction (log2)” value is -0.066.

As for “HMRKIVEGVLTKKEGKWYLLTDIETYKISDASAEYHKAELNDRASALIPAQNPKVPFASLEKVFN”, the “soluble fraction (log2)” value was -0.219.

As to “HMKKSRLHSVLEEIPGIGEKRRKILIKHFGTVEAIKKSSLEELARIKGMNRRAAQNVLEYLK”, the “soluble fraction (log2)” value is -0.0583.

For the sequence “HMQGEAMQETVKKLDAFLQDNSVSMSALARALGVSPSLISQFRSGSYKGDSQAIAAKINSYIDNHNKKSK”, the “soluble fraction (log2)” value was found to be 0.0765.

Regarding “HMDSGINVWASAEGLTITADKDTTVYVYDIYGRTIHTSEVKAGTSDIAINTKGIVIVKANGYTKKII”, the “soluble fraction (log2)” value was -1.

“HMEPREALDGLISERGETYASISRLLGRNSAYIQQFIKRGSPARLDQSDIALLALHFDVPVEMLGGKE”: the “soluble fraction (log2)” value was -0.42.

Take “HMSNGYVTAKTTVNVRKSASESGERLGVIYQGDKLELVMNQADGWTKVKYKGQTAYVKSEFM”: the “soluble fraction (log2)” value is -0.6.

With “HMQKIEKVDYGTFLKMIENGEIDQVNLTEKKISFTTDKDAETVYETGRVEDPNIVDRLYQADVEFTQEI”, the “soluble fraction (log2)” value worked out at 0.207.

On to “HMLKEGIKEKINQLQVYADKNDNIIWYDRVVDILSDKDDSVTDEMIEAAIRTLEEAGISVERKQ”, for which the “soluble fraction (log2)” value amounted to 0.0259.

In the case of “HMKSKYLIKIEGDFDEKDLYKYLINVSIVNHTKNNGFTEVEFYNDNYSLQQNFLKSMLNDGIIITEFKKVE”, the “soluble fraction (log2)” value is -0.115.

On to “HMNKPLFVYPNPVHQGKINLSKATNFMVVDLLGQTVNKTNYGKDFSIDNLPNGVYFIKTTEGEIIKFMK”, for which the “soluble fraction (log2)” value is -0.696.

Turning to “HMSGEPVKSTLPGNVFKILVAVGDSVKKGQRMFVLEAMKMEIDVNAPKDGLVTSIEVQQGQTVANGQILAK”, the “soluble fraction (log2)” value worked out at 0.0741.

As for “HMQIDDSVELSAIVEKLLAANPEQVEQLKNGKTKVLGYFVGLAMKETQGRANPQKVNELIQTHL”, the “soluble fraction (log2)” value was -0.174.

Take “HMKVFREERLQLILEKLIHEKKVVVSDLVKYFNVSPSLIRMDLAELEKRDLILRTHGGAILPD”: the “soluble fraction (log2)” value was -2.23.

Turning to “HMETITDRLNRRSLELNVSQADIIRTTGAGRGTVSGWFSGANAPSAKYLESLAVALKTSTTWLLSGKD”, the “soluble fraction (log2)” value is -0.741.

For the sequence “HMEVSVPDFTGMSKSDAQNAAKEAGLTVNFEEDYDNQVPAGQVIRSNPSAGEKVKKNSSVTVTLSKGSN”, the “soluble fraction (log2)” value was -0.0943.

For the sequence “HMTAFSEQLIKLRKQKGLSQEQLGAAVGVTRQTVSKWELGDTTPELGKLVQLSDYFQLSIDELVGH”, the “soluble fraction (log2)” value is -0.0666.

For the sequence “HMNQTPQISYSQFIADVRSGQIKDVNIDSDNRTIVGHKFSGEEFTTFSPGDNKLVDELLNYNVEIKTSP”, the “soluble fraction (log2)” value amounted to 0.411.

Regarding “HMKLRYRTQEELLGVAREYRRRGLPLSVIVIDFYHWTKFGDWKFDPAYWPDPVGMVRELRDMGVEAAV”, the “soluble fraction (log2)” value was -0.203.

Consider “HMTTHERHEIIELLRQVGDPMRPKEISEALGKPSGAIRFLLSKLTEEGAIKKTGYGQYTYIP”, for which the “soluble fraction (log2)” value is -0.359.

Turning to “HMGRRERKKLQSRRAIIEAAVTEFKEKGFREASVADIMTRADLGLGTFYNYFQSKEDILMSLLS”, the “soluble fraction (log2)” value is -0.0676.

Regarding “HMAIMISINAKGEVAWNDQIISLDDLAQRFNAAGQQAQKPTVQLRADKESRYDMVAQVMSRASEAGLSDIA”, the “soluble fraction (log2)” value is -0.781.

Consider HMQEDKVRKLTEMGFAEDQAREALRKHDWDETMALNSL, for which the “soluble fraction (log2)” value worked out at 0.199.

Consider “HMNSEELFLRRIAQELIDQHGKDLHRIIVVLPSNRSKVFLKKFLFEILGSAFLTPQLMLLPQFVKSIV”, for which the “soluble fraction (log2)” value is -0.282.

For “HMLPKNITNTIDHWIQKFPQGKQRSAIIAALHAVQHHNKGFLTNDLLNQVADYIDVPKMNVYEVATFYSM”, the “soluble fraction (log2)” value was 0.0843.

“HMTPDGNATVWSANGYGVRLRTGPGKGYAIIGVYSVGTTVKVLERGPAGGWDHIQVGSRVGYMMNEFLHYY”: the “soluble fraction (log2)” value was -1.69.

Take “HMKPLRPVHLEIQTHRLSPVGILRSSFRQAGKVMHSNHGRITGLNLEQLKLIQAAFAGEALPK”: the “soluble fraction (log2)” value is -0.0219.

For “HMSLSKQETEFLTTFSASGKRVFTYQQATDYWQSKVAATNVLGRLVRKGWLQRLERGLYMIIPLEAGPERF”, the “soluble fraction (log2)” value was -0.853.

Take “HMSMSTVGERIKKKRKNLNFTQQELAAKLNISAQAVSKWENGVALPDLGLMPKLAQVLESTVDGLLGYQGA”: the “soluble fraction (log2)” value was determined as 0.0315.

Take “HMDVLNPGDKAVTTASWLNFRTGPGMQNKVASVLARNTTVNIIEKSNEWYKVSLANGSTGYVHGMYLSKIT”: the “soluble fraction (log2)” value was -0.0937.

“HMSGPAEDLLAIEGMDKELAYELAARGIRTRDELADQSLDELEAVPGLDPVRAGQLIMAARAHLFENAGQ”: the “soluble fraction (log2)” value is -0.124.

As for “HMLPLLEYLDPFTGKKTYTYLNPDTQHPIFTYYSYQDDKTGRTAYSYIDPLTGKAVNSDEPPMDILYD”, the “soluble fraction (log2)” value was -0.441.

In the case of “HMRPDSFEAGEAEAGSRLDRLLAARLGIPRNQVQQWIGGGRVTVDAEPVRASLVVRAGMRIAWDPPPPP”, the “soluble fraction (log2)” value was -0.0768.

Turning to “HMGENTIFSGVLGEGRLDSALAHALPQFSRARIQGLIAEDAVLIAGKATNDAASKKFAGQSFELSVPAPRP”, the “soluble fraction (log2)” value was determined as 0.105.

With “HMPVFSAEQVAKAEADVQKVANKVQEAGADVEKLTTIHNWLLAREKYMPPDLFSTANQIIATAFQKAG”, the “soluble fraction (log2)” value amounted to 0.112.

For the sequence “HMRLLAESIARGLDPEGSGGLWAKEAGAEALKLMETLAAEAPHGGSFTAAAYRDLFESLVHQGEVREA”, the “soluble fraction (log2)” value is 0.0472.

For “HMPSLAVYPNPVKDILNIATDKPVHSIRIYNVYGSEVLRAADTNRIDVSHLPAGVYMVSADGKVTRIIK”, the “soluble fraction (log2)” value was -0.462.
